Results as given in the supplement of paper PMC7125110.
± gives the standard error. Variants at the floor of the assay were thinned out.

B1: glmS ribozyme (parent)
chain: AUAAAAGCGCCAGAACUACAGAAAUGUAGUUGACGAGGAGGAGGUUUAUCGAAUUUUCGGCGGAUGCCUCCAAA

Legend:
Details in all cases: with glucosamine-6-phosphate
glucosamine-6-phosphate [1] = variants of: B1; assay: self-cleavage kobs at 640 uM GlcN6P; higher = faster cleavage; RNA array
How it was run: (§1)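 E. coli RNA polymerase transcribed barcoded ribozyme variants in situ on sequenced MiSeq chips, which were tracked via a hybridised Cy3 probe at 37 °C. Tiles were imaged over ~14 h after glucosamine-6-phosphate (40 μM to 10 mM) in HEPES/KCl/Mg(OAc)2 buffer was flowed in. Normalised per-tile medians were fit to one- or two-exponential decays for kobs, and kcat and KM came from weighted Michaelis–Menten fits.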

glucosamine-6-phosphate [2] = variants of: B1; assay: self-cleavage kobs at 10000 uM GlcN6P; higher = faster cleavage; RNA array
How it was run: as §1

glucosamine-6-phosphate [3] = variants of: B1; assay: self-cleavage kobs at 2500 uM GlcN6P; higher = faster cleavage; RNA array
How it was run: as §1

Variant | self-cleavage kobs at 640 uM GlcN6P (glucosamine-6-phosphate [1]) | self-cleavage kobs at 10000 uM GlcN6P (glucosamine-6-phosphate [2]) | self-cleavage kobs at 2500 uM GlcN6P (glucosamine-6-phosphate [3])
G9A G29C G32A G38U | < 1e-05 s⁻¹ | – | –
C8A C10A C34A | < 1e-05 s⁻¹ | – | –
C34G G35A G63U | < 1e-05 s⁻¹ | < 1e-05 s⁻¹ | –
G44C U56C G59U | < 1e-05 s⁻¹ | – | < 1e-05 s⁻¹
A14G A42G C67A | 0.01 ± 0.0028 s⁻¹ | – | 0.00856 ± 0.0041 s⁻¹
G32A G37C A42C | < 1e-05 s⁻¹ | – | –
A33U A52G C68G C71G | 0.000207 ± 7.3e-05 s⁻¹ | – | 9.93e-05 ± 4e-05 s⁻¹
G7C G9C G44A | < 1e-05 s⁻¹ | < 1e-05 s⁻¹ | –
G13A G35C G51U | < 1e-05 s⁻¹ | – | –
G29U C34U U47G C68U | 5.56e-05 ± 2.3e-05 s⁻¹ | – | –
C16A G38U C67G | 0.0005 ± 0.00011 s⁻¹ | – | –
A15G G29C G38A U47C C71A | < 1e-05 s⁻¹ | – | < 1e-05 s⁻¹
A14U U31A G32U C67U | 5.86e-05 ± 2.4e-05 s⁻¹ | – | 0.000276 ± 7.5e-05 s⁻¹
G21A G44U | 9.22e-05 ± 2.3e-05 s⁻¹ | – | 0.000164 ± 3.3e-05 s⁻¹
G7C A12C G32A C50A G60U | < 1e-05 s⁻¹ | – | –
G38C U46C G59U U65C C67A | < 1e-05 s⁻¹ | – | < 1e-05 s⁻¹
G32U A33U C34A A36C | < 1e-05 s⁻¹ | – | < 1e-05 s⁻¹
A12U G44U U45C C70G | < 1e-05 s⁻¹ | – | –
A33C G35A G44U C70U | < 1e-05 s⁻¹ | – | –
A42G C68G | 7.72e-05 ± 2.8e-05 s⁻¹ | 0.000128 ± 2.2e-05 s⁻¹ | 0.000308 ± 7.3e-05 s⁻¹
G35U A39C C71U | < 1e-05 s⁻¹ | – | < 1e-05 s⁻¹
A36C G38C G60C U65A | < 1e-05 s⁻¹ | – | –
C11G U31G A39C G41C | < 1e-05 s⁻¹ | – | < 1e-05 s⁻¹

Variant | self-cleavage kobs at 640 uM GlcN6P (glucosamine-6-phosphate [1]) | self-cleavage kobs at 10000 uM GlcN6P (glucosamine-6-phosphate [2]) | self-cleavage kobs at 2500 uM GlcN6P (glucosamine-6-phosphate [3])
A53C G60A G66A | < 1e-05 s⁻¹ | – | –
C8A A12U A15U C70A | < 1e-05 s⁻¹ | – | –
G29C A36C A39C | < 1e-05 s⁻¹ | < 1e-05 s⁻¹ | –
A39G A48U U54G | 8.65e-05 ± 1.9e-05 s⁻¹ | – | 0.000287 ± 7.3e-05 s⁻¹
C11G G13U G29A G66A | < 1e-05 s⁻¹ | – | –
G40C G51C G63C C71A | < 1e-05 s⁻¹ | – | < 1e-05 s⁻¹
A12C C16A A33U | < 1e-05 s⁻¹ | – | –
G32A G37C C61U C67U | < 1e-05 s⁻¹ | – | –
G35A A53C G63C | < 1e-05 s⁻¹ | – | < 1e-05 s⁻¹
A15U U31G A48U | < 1e-05 s⁻¹ | – | –
G7U C10U C16A U30G A48C | < 1e-05 s⁻¹ | – | –
C10G C11U U45G A48U C58U | < 1e-05 s⁻¹ | – | < 1e-05 s⁻¹
G35A A39U G51C | < 1e-05 s⁻¹ | – | < 1e-05 s⁻¹
U54A U55G A64C | 3.35e-05 ± 1.7e-05 s⁻¹ | – | 5.81e-05 ± 1.7e-05 s⁻¹
G43U G63U C71G | < 1e-05 s⁻¹ | – | < 1e-05 s⁻¹
A48C U56G G60A C61G | < 1e-05 s⁻¹ | – | –
A39G U45G C71U | 0.00169 ± 0.0004 s⁻¹ | – | 0.0041 ± 0.0017 s⁻¹
U30C G41C C71U | < 1e-05 s⁻¹ | – | –
G9U U30C C34U C58U G66U C70G | < 1e-05 s⁻¹ | < 1e-05 s⁻¹ | –
G9C U69G | < 1e-05 s⁻¹ | < 1e-05 s⁻¹ | < 1e-05 s⁻¹
G13C A39G U57C A64U C67U C70U | < 1e-05 s⁻¹ | – | –
C10G U47A A53U G60U | < 1e-05 s⁻¹ | – | –
G41U A42U C61A | < 1e-05 s⁻¹ | – | < 1e-05 s⁻¹

Variant | self-cleavage kobs at 640 uM GlcN6P (glucosamine-6-phosphate [1]) | self-cleavage kobs at 10000 uM GlcN6P (glucosamine-6-phosphate [2]) | self-cleavage kobs at 2500 uM GlcN6P (glucosamine-6-phosphate [3])
U47A G66C C71U | 0.000187 ± 6.3e-05 s⁻¹ | – | 0.000491 ± 0.00012 s⁻¹
G29C G35A G41C G63U C68G | < 1e-05 s⁻¹ | – | –
C34U A36U G41C A53G | < 1e-05 s⁻¹ | – | –
C16U G32U A36C C58U | < 1e-05 s⁻¹ | – | –
A12U C67U C71U | 0.000764 ± 0.0002 s⁻¹ | – | 0.000592 ± 0.00018 s⁻¹
A6G C8U U31G C71G | < 1e-05 s⁻¹ | – | –
G32A A36U G62U C70G | 0.000218 ± 8.5e-05 s⁻¹ | – | –
A14U U31A G37C G59C | < 1e-05 s⁻¹ | – | < 1e-05 s⁻¹
A33U C34G G44A G51A | < 1e-05 s⁻¹ | – | < 1e-05 s⁻¹
A15U U49C C68G | 0.00159 ± 0.00057 s⁻¹ | – | –
C16U G41A C71A | 7.7e-05 ± 2.1e-05 s⁻¹ | – | 0.000279 ± 7.1e-05 s⁻¹
A6G G41A C50A G62U | < 1e-05 s⁻¹ | – | –
A36G A39C A64U C71G | < 1e-05 s⁻¹ | – | < 1e-05 s⁻¹
A6G C16G U57C | < 1e-05 s⁻¹ | – | –
C10A A36U C68A | 0.000222 ± 9e-05 s⁻¹ | – | –
A14G G35C A48U | < 1e-05 s⁻¹ | – | –
A36G A42G U56G | < 1e-05 s⁻¹ | – | –
G9U U65C | < 1e-05 s⁻¹ | < 1e-05 s⁻¹ | –
A6G A52G G60A | < 1e-05 s⁻¹ | – | < 1e-05 s⁻¹
A14C A64U C67U | < 1e-05 s⁻¹ | – | –
C11G A15C U30G A52U | < 1e-05 s⁻¹ | – | –
C11G A12G U45G U47A C71G | < 1e-05 s⁻¹ | – | < 1e-05 s⁻¹
